From paper PMC10381965

Target: CENP-A nucleosome (CENP-A^Nuc), histone octamer of CENP-A, H4, H2A and H2B wrapped with C0N3 or CEN3 DNA (S. cerevisiae) (UniProt P36012)
Test: SEC-MALS; CENP-A nucleosome (C0N3 or CEN3 DNA), CENP-C, CENP-LN, CENP-OPQU+, CENP-HIK-TW, CBF1 and CBF3^Core mixed at 2 μM; cross-linked with 3 mM BS3; 10 mM Hepes pH 8.0, 80 mM NaCl, 1 mM EDTA, 0.5 mM TCEP

## CCAN, fully assembled (CENP-C, CENP-LN, CENP-OPQU+, CENP-HIK-TW) (from UniProt P35201 1-549; P38265 1-245; P38907 1-458; Q06675 1-368; Q02732 1-369; P53298 1-406; P38313 1-324; Q12493 1-238; Q06162 1-153; Q12262 1-181; Q12748 1-733; P47167 1-239; P43618 1-361; Q2V2P8 1-89) (complex)
  stoichiometry N: 2
